Experimental findings from patent US20200369765A1 (INNATE PHARMA, published 2020) are described below.

The target in experiment [1] is T1, Human Siglec-9 (human, UniProt Q9Y336 18-463).
T1 construct: On transfected CHO cells; also on YTS and KHYG-1 transfectants, primary NK cells and moDC; also called huSiglec-9; CD329
The experiment in a line: flow cytometry, CHO Siglec-9 cells, mean n = 2. The method, then: Binding of humanized antibodies was tested on CHO cells transfected with human Siglec-9, in a titration experiment by flow cytometry. Cells were incubated 90 minutes at 37° C. in Staining Buffer (SB) with primary antibodies at 10 ug/ml and a series of dilution of 1:10. They were washed three times with SB, then incubated 30 minutes with a goat F(ab′)² Anti-human IgG (Fc) PE. EC₅₀ values (μg/ml) for Siglec-9 expressing cells are shown below.
Target sequence in this assay (Q9Y336 18-463): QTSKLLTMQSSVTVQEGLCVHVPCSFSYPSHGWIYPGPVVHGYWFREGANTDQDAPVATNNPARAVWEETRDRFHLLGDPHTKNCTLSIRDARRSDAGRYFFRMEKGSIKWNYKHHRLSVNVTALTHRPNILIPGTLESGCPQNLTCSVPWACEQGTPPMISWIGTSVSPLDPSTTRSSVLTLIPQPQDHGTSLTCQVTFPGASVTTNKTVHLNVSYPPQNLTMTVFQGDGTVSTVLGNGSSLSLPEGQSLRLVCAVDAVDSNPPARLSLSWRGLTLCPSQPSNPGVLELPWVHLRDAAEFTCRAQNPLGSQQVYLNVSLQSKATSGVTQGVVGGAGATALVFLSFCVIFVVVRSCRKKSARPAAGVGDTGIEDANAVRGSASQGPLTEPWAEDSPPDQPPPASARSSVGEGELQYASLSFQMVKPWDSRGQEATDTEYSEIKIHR

Experiment [2] has as its target T1, Human Siglec-9. The experiment in a line: flow cytometry titration on moDC vs neuraminidase-treated moDC. The protocol: (§1) moDC were desialylated for 2 hours with 25 mU neuraminidase (Roche Diagnostics).
(§2) Binding on moDCs and neuraminidase treated moDCs was tested in a titration experiment by flow cytometry. Cells were incubated 1h in Staining Buffer (SB) with primary antibodies at 10 ug/ml and a series of dilution of 1:10. They were washed two times with SB, then incubated 30 min with a Goat F(ab′)² Anti-Human IgG (Fc) PE (Jackson ImmunoResearch), and washed twice with SB.
Background: In flow cytometry, cells or beads pass a laser one at a time.

For experiment [3], the target named is T2, Human Siglec-9 mutant M16 (human, UniProt Q9Y336 18-463).
T2 construct: Expressed on HEK293T cells; also called Mutant 16
T2 sequence (Q9Y336 other isoform, or with tags, fused parts or gaps mutant): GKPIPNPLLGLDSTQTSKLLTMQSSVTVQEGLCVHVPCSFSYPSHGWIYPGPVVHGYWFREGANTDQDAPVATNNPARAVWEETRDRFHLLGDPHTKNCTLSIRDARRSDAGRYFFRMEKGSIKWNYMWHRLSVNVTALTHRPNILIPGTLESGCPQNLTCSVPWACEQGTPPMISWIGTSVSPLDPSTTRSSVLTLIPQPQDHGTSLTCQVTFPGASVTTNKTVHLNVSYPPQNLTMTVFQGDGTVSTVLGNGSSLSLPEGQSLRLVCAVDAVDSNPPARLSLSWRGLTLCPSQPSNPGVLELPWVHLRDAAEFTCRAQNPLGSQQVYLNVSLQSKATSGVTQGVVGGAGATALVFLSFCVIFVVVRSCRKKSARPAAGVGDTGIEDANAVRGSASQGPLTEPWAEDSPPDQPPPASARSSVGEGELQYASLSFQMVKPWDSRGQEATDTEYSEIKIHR
The experiment in a line: flow cytometry, HEK293T transfectants; '-' indicates full loss of binding.

The target in experiment [4] is T1, Human Siglec-9. The experiment in a line: flow cytometry titration on neuraminidase-treated moDCs, goat F(ab')2 anti-human IgG (Fc) PE; table under the right panel. The protocol: as §1, §2
The target in a further experiment is T3, Human Siglec-9 mutant M8 (human, UniProt Q9Y336 18-463).
T3 construct: Expressed on HEK293T cells; also called Mutant 8
T3 sequence (Q9Y336 other isoform, or with tags, fused parts or gaps mutant): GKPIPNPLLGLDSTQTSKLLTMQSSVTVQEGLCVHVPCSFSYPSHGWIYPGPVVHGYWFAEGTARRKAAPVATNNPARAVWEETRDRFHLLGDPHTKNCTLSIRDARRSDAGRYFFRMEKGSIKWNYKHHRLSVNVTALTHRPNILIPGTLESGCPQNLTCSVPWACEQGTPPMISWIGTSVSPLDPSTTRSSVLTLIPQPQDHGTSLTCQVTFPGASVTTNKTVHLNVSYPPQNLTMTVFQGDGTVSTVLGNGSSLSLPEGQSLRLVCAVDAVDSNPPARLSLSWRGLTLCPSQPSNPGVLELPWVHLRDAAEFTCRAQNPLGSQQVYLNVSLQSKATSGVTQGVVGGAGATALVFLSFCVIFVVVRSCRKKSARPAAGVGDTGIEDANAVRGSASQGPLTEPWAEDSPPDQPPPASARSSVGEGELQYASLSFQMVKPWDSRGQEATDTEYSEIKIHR
In words: flow cytometry, HEK293T transfectants; '-' indicates full loss of binding.

The next experiment has as its target T4, Human Siglec-9 mutant M6 (human, UniProt Q9Y336 18-463).
T4 construct: Expressed on HEK293T cells; also called Mutant 6
The experiment is described as above.

Experiment [5] deals with T5, Siglec-9 Fc protein (human).
T5 construct: Produced in CHO cells; also called human Siglec-9 Fc
T5 sequence (chain, as listed by the source limits assumed): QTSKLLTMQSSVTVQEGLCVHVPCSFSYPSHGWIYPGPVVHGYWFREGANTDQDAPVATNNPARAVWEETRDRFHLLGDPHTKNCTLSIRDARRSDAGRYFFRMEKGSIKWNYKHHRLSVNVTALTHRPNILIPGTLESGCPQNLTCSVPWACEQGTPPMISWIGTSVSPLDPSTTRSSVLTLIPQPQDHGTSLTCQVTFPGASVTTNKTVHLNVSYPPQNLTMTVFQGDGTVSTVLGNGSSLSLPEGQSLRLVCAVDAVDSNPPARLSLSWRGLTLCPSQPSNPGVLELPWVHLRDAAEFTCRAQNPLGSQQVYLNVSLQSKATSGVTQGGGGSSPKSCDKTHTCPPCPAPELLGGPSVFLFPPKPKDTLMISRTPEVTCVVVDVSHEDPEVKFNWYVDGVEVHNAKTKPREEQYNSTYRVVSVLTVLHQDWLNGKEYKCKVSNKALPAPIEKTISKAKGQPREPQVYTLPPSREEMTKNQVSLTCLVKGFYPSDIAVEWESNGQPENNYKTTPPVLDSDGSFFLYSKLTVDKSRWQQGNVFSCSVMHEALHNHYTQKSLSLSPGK
The experiment in a line: ELISA, blocking: Siglec-9 Fc captured on protein A, mAb dilution series, then biotinylated polymer Sia2, streptavidin-peroxidase (bottom panel). The protocol:
(§3) Blocking of the interaction between Siglec-7 and -9 and sialylated ligands by anti Siglec-7/9 antibodies was tested on ELISA assays. Siglec proteins were Siglec-7 human Fc and Siglec-9 Human Fc recombinant proteins, and ligands were biotinylated polymers with sialylated trisaccharides (Neu5Aca2-3Galb1-4GcNAcb-PAA-biotin Glycotech #01-077 referred to as “Sia1” and 6′-Sialyllactose-PAA-biotin Glycotech #01-039 (referred to as “Sia2”). Briefly, Protein A was coated on ELISA plates over night at 4° C. After 3 washes and saturation, Siglec-7 Fc and Siglec-9 Fc were added at 0.8 μg/well at RT for 1H30. After 3 washes, mAbs were added at 20 ug/ml and a series of dilution of 1:5. After 3 washes, biotinylated sialylated polymers were added for 3 hours at room temperature. After 3 washes, Streptavidin-Peroxidase (Beckman) was added at 1:1000. […] The absorbance was read at 450 nm.
On the technique in general: ELISA stands for enzyme-linked immunosorbent assay.

In experiment [6] the target is T6, Siglec-7 Fc protein (human).
T6 construct: Produced in CHO cells; also called human Siglec-7 Fc
T6 sequence (chain, as listed by the source limits assumed): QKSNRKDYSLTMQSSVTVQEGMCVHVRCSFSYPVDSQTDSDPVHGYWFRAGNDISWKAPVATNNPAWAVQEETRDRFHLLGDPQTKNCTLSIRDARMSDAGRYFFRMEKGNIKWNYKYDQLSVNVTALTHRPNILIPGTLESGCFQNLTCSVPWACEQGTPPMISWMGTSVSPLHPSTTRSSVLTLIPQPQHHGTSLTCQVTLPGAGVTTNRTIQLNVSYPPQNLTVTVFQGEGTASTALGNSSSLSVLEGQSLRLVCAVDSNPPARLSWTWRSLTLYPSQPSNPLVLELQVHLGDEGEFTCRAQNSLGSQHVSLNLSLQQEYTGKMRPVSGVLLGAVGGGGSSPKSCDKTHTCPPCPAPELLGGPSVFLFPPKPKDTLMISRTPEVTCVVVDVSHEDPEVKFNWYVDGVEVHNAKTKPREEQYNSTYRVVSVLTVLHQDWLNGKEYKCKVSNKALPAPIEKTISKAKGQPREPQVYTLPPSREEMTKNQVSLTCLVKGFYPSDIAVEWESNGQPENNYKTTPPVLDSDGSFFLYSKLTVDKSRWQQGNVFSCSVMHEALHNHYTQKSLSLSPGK
The experiment in a line: ELISA, blocking: Siglec-7 Fc captured on protein A, mAb dilution series, then biotinylated polymer Sia2, streptavidin-peroxidase (bottom panel); partial inhibition. The method, then:
as §3

Experiment [7] deals with T5, Siglec-9 Fc protein. The experiment in a line: ELISA, blocking: Siglec-9 Fc captured on protein A, mAb dilution series, then biotinylated polymer Sia1, streptavidin-peroxidase (top panel); weak partial inhibition. The method, then: as §3
Experiment [8] has as its target T6, Siglec-7 Fc protein. The experiment in a line: ELISA, blocking: Siglec-7 Fc captured on protein A, mAb dilution series, then biotinylated polymer Sia2 (6'-Sialyllactose-PAA-biotin), streptavidin-peroxidase (top panel). The method, then:
as §3

T4 sequence (Q9Y336 other isoform, or with tags, fused parts or gaps mutant): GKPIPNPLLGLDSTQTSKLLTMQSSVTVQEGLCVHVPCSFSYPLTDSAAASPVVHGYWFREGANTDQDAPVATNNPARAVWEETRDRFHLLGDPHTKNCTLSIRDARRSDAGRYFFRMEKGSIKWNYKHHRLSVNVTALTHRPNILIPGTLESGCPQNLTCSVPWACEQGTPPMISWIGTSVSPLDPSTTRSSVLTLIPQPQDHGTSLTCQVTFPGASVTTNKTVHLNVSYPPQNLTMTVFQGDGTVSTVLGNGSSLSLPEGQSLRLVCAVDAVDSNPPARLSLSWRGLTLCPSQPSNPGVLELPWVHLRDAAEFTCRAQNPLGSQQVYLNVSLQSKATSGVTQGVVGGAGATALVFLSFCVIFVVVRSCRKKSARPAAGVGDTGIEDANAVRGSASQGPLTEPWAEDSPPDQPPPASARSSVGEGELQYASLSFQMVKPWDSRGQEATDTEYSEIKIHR

B1: mAbA (antibody, human IgG1, V domains shown)
VH: QVQLQQPGAELVKPGSPVKLSCKASYFTFTSYWMHWVRQRPGQGLEWIGEINPSNGHTNYNEKFESKATLTVDRSSSTAYMQLSSLTSEDSAVFYCANGVESYDFDDALDYWGQGTSVTVSS
VL: DIQMTQTTSSLSASLGDRVTISCRASQDINNYLNWYQQKPDGTIKLLIYYTSRLHSGVPSRFSGSGSGTDYSLTINNLEQEDIATYFCQQGNTLPFTFGGGTKLEIK
In general, EC50 refers to the concentration at which the effect is half-maximal. As for B1, the results for the EC50 with Human Siglec-9 [1] and with Human Siglec-9 [4] were 0.03 µg/mL and 0.0282 µg/mL, respectively. The “fold change of EC50 after neuraminidase treatment of moDC” value (“fold change of EC50” for short) with Human Siglec-9 [2] was 10 fold. For the same molecule, the binding result in experiment [3] is reported as “no binding”.

B2: mAbB (antibody, human IgG1, V domains shown)
VH: QVQLQQPGAELVKPGASVKLSCKASVYTFTSYWMHWVKQRPGQGLEWIGEINPSNGHTNYNEKFKTKAKLTVDKSSSTAYMQLSSLTSEDSAVYFCANGVETYDFDDAMDYWGQGTSVTVSS
VL: DIQMTQTTSSLSASLGDRVTISCRASQDINNYLNWYQQKPDGTVKLLIYFTSRLHSGVPSRFSGSGSGTDYSLTISNLEQEDIATYFCQQGDTFPFTFGGGTKLEIK
As for B2, the binding result in experiment [3] is listed as “no binding”.

B3: mAbC (antibody, human IgG1, V domains shown)
VH: QIQLVQSGPELKKPGETVKISCKASGYTFTNYEMNWVKEAPGKGLKWMGWINTYTGESTYADDFKGRFAFSLETSASTVYLQINNLKDEDVATYFCVRDDYGRSYGFAYWGQGTLVTVSA
VL: NIVLTQSPASLTVSLGQRANISCRASESVDSYGNSFMHWYQQKPGQPPKLLIYLASKLESGVPARFSGSGSRTDFTLTIDPVETDDAATYYCHQNNEDPPWTFGGGTKLEIK
As for B3, the “fold change of EC50” value in the experiment with Human Siglec-9 [2] came out at 10 fold. Besides, in the experiment with Human Siglec-9 mutant M8, the binding result is given as “no binding”. The EC50 in the experiment with Human Siglec-9 [4] worked out at 0.0274 µg/mL.

B4: mAbD (antibody, human IgG1, V domains shown)
VH: QIQLVQSGPELKKPGETVKISCKASGYTFTDYSMHWVKQAPGKGLKWMGWIITETGEPTYADDFRGRFAFSLETSANTAYLQINNLKNEDTATYFCARDFDGYWGQGTTLTVSS
VL: DILMTQSPASLSASVGETVTITCRASENIYSYLAWYQQKRGKSPQFLVYNAKTLTEGVPSRFRGSGSGTQFSLKINSLQPEDFGTYYCQHHYGFPWTFGGGTKLEIK
For B4, the EC50 with Human Siglec-9 [1] was 0.036 µg/mL; with Human Siglec-9 [4] it was 0.0925 µg/mL. Moreover, the “fold change of EC50” value with Human Siglec-9 [2] is 10 fold. Also, the binding result with Human Siglec-9 mutant M6 is on record as “no binding”.

B5: mAb1 (antibody, human IgG1, V domains shown)
VH: DVQLQESGPGLVKPSQSLSLTCTVTGYSITGGFAWNWIRQFPGNTLEWMGYIGYGGSTSYNPSLNSRISITRDTSKNHFFLQFNSVTTDDSATYYCARGDYLFAYWGQGTLVTVSA
VL: DIVMTQSHKFMSTSVGDRVSITCKASQDVNTAVAWYQQKPGQSPKLLIYSASYRYTGVPDRFTGSGSGTDFTFTISSVQAEDLAVYYCQQHYSTPRTFGGGTKLEIK
For B5, the “IC50 (read off the curve)” value was approximately 1 µg/mL with Siglec-9 Fc protein [5], approximately 4 µg/mL with Siglec-7 Fc protein [6] and approximately 2 µg/mL with Siglec-9 Fc protein [7].

B6: mAb2 (antibody, human IgG1, V domains shown)
VH: EVQLQESGPGLVKPSQSLSLTCTVTGYSITGGFAWNWIRQFPGNTLEWMGYIGYGGSTSYNPSLNSRISITRDTSKNHFFLQFNSVTTEDSATYYCARGDYLFAYWGQGTLVTVSA
VL: DIVMTQSHKFMSTSVGDRVSITCKASQDVNTAVAWYQQKPGQSPKLLIYSASYRYTGVPDRFTGSGSGTDFTFTISSVQAEDLAVYYCQQHYSTPRTFGGGTKLEIK
For the molecule B6, the “IC50 (read off the curve)” value in the experiment with Siglec-9 Fc protein [5] is approximately 1 µg/mL; in the experiment with Siglec-7 Fc protein [6], approximately 4 µg/mL; with Siglec-9 Fc protein [7], approximately 2 µg/mL.

B7: mAb6 (antibody, human IgG1, V domains shown)
VH: EIQLQQSGPELEKPGASVKISCKASGYSFSDYNMNWVKQSNGKSLEWIGNIDPYYGATSYNQRFKGKATLTVDKSSSTAYMQLKSLTSEDSAVYYCARGDSLFAYWGQGTLVTVSA
VL: DIVMTQSQEFMSTSLGDRVSVTCKASQNVGTNVAWYQQKPGQSPKALLYSASSRYSGVPDRFTGSGSGTDFTLTINNMQSEDLAEYFCQQYITYPYTFGGGTKLEIK
On to B7, for which the binding result in the experiment with Siglec-7 Fc protein [8] was “binds”.
